{"source": "patent US20160137746A1", "about": "“METHODS FOR TREATING HIGH CARDIOVASCULAR RISK PATIENTS WITH HYPERCHOLESTEROLEMIA” (Sanofi Biotechnology, priority 2014, published 2016)", "test_system": "high cardiovascular risk patients with hypercholesterolemia", "assay": "ODYSSEY COMBO II: safety (TEAEs, adjudicated CV events, laboratory parameters, low LDL-C)", "key": {"[1]": {"details": "alirocumab patients with two consecutive LDL-C ≦25 mg/dL (n = 105), number (%) of patients"}, "[2]": {"details": "safety population at 52 weeks, all patients, number (%) of patients"}}, "procedure": "Safety assessments during both studies were as follows. Safety was assessed through adverse event (AE) reporting (including adjudicated cardiovascular events), laboratory analyses, and vital signs measurement. Since the LDL-C-lowering effects of PCSK9 inhibition on top of a statin are unknown, a number of AEs were defined as being of special interest and were monitored, including alanine aminotransferase abnormalities, allergic events, hemolytic anemia, pregnancy, overdose with study drug, neurologic events, ophthalmic events, and local injection site reactions.\nSafety Analyses were as follows. AEs (including adjudicated cardiovascular events), laboratory parameters, and vital signs were reported descriptively, based on the safety population (all randomized patients who received at least 1 dose or partial dose of study treatment). The safety analysis focused on the treatment-emergent AE period defined as the time from the first double-blind dose to the last double-blind dose of the investigational product +70 days (10 weeks).\nThe safety population included all randomized patients who received at least one dose or part of a dose of the double-blind IMP.\nSafety analyses were descriptive, performed on the safety population according to treatment actually received. For analysis of TEAE and PCSA, the safety analysis focused on the TEAE period defined as the time from the first dose of double-blind IMP administration (capsule or injection, whichever comes first) up to 70 days after the last double-blind injection."}
{"substance": "Alirocumab: human anti-PCSK9 antibody; HCVR SEQ ID NO:1, LCVR SEQ ID NO:6; CDRs SEQ ID NOs 2/3/4/7/8/10", "values": [{"measurement": "Laboratory parameters: Blood glucose increased", "setting": "[1]", "value": "1 (1.0)"}, {"measurement": "Laboratory parameters: Hemoglobin decreased", "setting": "[1]", "value": "3 (2.9)"}, {"measurement": "Patients experiencing any TEAE", "setting": "[1]", "value": "72 (68.6)"}, {"measurement": "TEAE preferred term: Accidental overdose", "setting": "[1]", "value": "6 (5.7)"}, {"measurement": "TEAE preferred term: Angina pectoris", "setting": "[1]", "value": "2 (1.9)"}, {"measurement": "TEAE preferred term: Arthralgia", "setting": "[1]", "value": "5 (4.8)"}, {"measurement": "TEAE preferred term: Dizziness", "setting": "[1]", "value": "5 (4.8)"}, {"measurement": "TEAE preferred term: Headache", "setting": "[1]", "value": "4 (3.8)"}, {"measurement": "TEAE preferred term: Hypertension", "setting": "[1]", "value": "3 (2.9)"}, {"measurement": "TEAE preferred term: Influenza", "setting": "[1]", "value": "3 (2.9)"}, {"measurement": "TEAE preferred term: Myalgia", "setting": "[1]", "value": "4 (3.8)"}, {"measurement": "TEAE preferred term: Nasopharyngitis", "setting": "[1]", "value": "10 (9.5)"}, {"measurement": "TEAE preferred term: Upper respiratory tract infection", "setting": "[1]", "value": "4 (3.8)"}, {"measurement": "TEAE system organ class: Blood and lymphatic system disorders", "setting": "[1]", "value": "4 (3.8)"}, {"measurement": "TEAE system organ class: Cardiac disorders", "setting": "[1]", "value": "14 (13.3)"}, {"measurement": "TEAE system organ class: Eye disorders", "setting": "[1]", "value": "2 (1.9)"}, {"measurement": "TEAE system organ class: Gastrointestinal disorders", "setting": "[1]", "value": "19 (18.1)"}, {"measurement": "TEAE system organ class: General disorders and administration site conditions", "setting": "[1]", "value": "10 (9.5)"}, {"measurement": "TEAE system organ class: Infections and infestations", "setting": "[1]", "value": "35 (33.3)"}, {"measurement": "TEAE system organ class: Injury, poisoning, and procedural complications", "setting": "[1]", "value": "10 (9.5)"}, {"measurement": "TEAE system organ class: Investigations", "setting": "[1]", "value": "7 (6.7)"}, {"measurement": "TEAE system organ class: Metabolism and nutrition disorders", "setting": "[1]", "value": "6 (5.7)"}, {"measurement": "TEAE system organ class: Musculoskeletal and connective tissue disorders", "setting": "[1]", "value": "19 (18.1)"}, {"measurement": "TEAE system organ class: Neoplasms, benign, malignant and unspecified (including cysts and polyps)", "setting": "[1]", "value": "5 (4.8)"}, {"measurement": "TEAE system organ class: Nervous system disorders", "setting": "[1]", "value": "17 (16.2)"}, {"measurement": "TEAE system organ class: Psychiatric disorders", "setting": "[1]", "value": "2 (1.9)"}, {"measurement": "TEAE system organ class: Renal and urinary disorders", "setting": "[1]", "value": "7 (6.7)"}, {"measurement": "TEAE system organ class: Reproductive system and breast disorders", "setting": "[1]", "value": "4 (3.8)"}, {"measurement": "TEAE system organ class: Respiratory, thoracic, and mediastinal disorders", "setting": "[1]", "value": "11 (10.5)"}, {"measurement": "TEAE system organ class: Skin and subcutaneous tissue disorders", "setting": "[1]", "value": "10 (9.5)"}, {"measurement": "TEAE system organ class: Vascular disorders", "setting": "[1]", "value": "4 (3.8)"}, {"measurement": "Adjudicated cardiovascular events", "setting": "in vivo", "value": 4.8, "unit": "%"}, {"measurement": "SOC gastrointestinal disorders", "setting": "in vivo", "value": 15.0, "unit": "%"}, {"measurement": "SOC musculoskeletal and connective tissue disorders", "setting": "in vivo", "value": 19.6, "unit": "%"}, {"measurement": "Safety in patients with two consecutive calculated LDL-C <25 mg/dL", "setting": "in vivo", "value": "No particular safety concern"}, {"measurement": "Treatment-emergent local injection site reactions", "setting": "in vivo", "value": 2.5, "unit": "%"}, {"measurement": "Patients who experienced at least one TEAE", "setting": "mean 58 weeks' follow-up", "value": 71.2, "unit": "%"}, {"measurement": "Serious adverse event", "setting": "mean 58 weeks' follow-up", "value": 18.8, "unit": "%"}, {"measurement": "TEAE leading to death", "setting": "mean 58 weeks' follow-up", "value": "2 (0.4%) n (%)"}, {"measurement": "TEAEs leading to treatment discontinuation", "setting": "mean 58 weeks' follow-up", "value": 7.5, "unit": "%"}, {"measurement": "Tolerability", "setting": "overall results", "value": "well-tolerated"}, {"measurement": "Time to the first calculated LDL-C value <15 mg/dL, mean", "setting": "safety population", "value": 15.07, "unit": "weeks"}, {"measurement": "Time to the first calculated LDL-C value <15 mg/dL, median", "setting": "safety population", "value": 9.14, "unit": "weeks"}, {"measurement": "Time to the first calculated LDL-C value <25 mg/dL, mean", "setting": "safety population", "value": 12.56, "unit": "weeks"}, {"measurement": "Time to the first calculated LDL-C value <25 mg/dL, median", "setting": "safety population", "value": 5.14, "unit": "weeks"}, {"measurement": "Laboratory parameters: Blood glucose increased", "setting": "[2]", "value": "1 (0.2)"}, {"measurement": "Laboratory parameters: Hemoglobin decreased", "setting": "[2]", "value": "4 (0.8)"}, {"measurement": "Patients experiencing any TEAE", "setting": "[2]", "value": "341 (71.2)"}, {"measurement": "TEAE preferred term: Accidental overdose", "setting": "[2]", "value": "30 (6.3)"}, {"measurement": "TEAE preferred term: Angina pectoris", "setting": "[2]", "value": "12 (2.5)"}, {"measurement": "TEAE preferred term: Arthralgia", "setting": "[2]", "value": "19 (4.0)"}, {"measurement": "TEAE preferred term: Dizziness", "setting": "[2]", "value": "23 (4.8)"}, {"measurement": "TEAE preferred term: Headache", "setting": "[2]", "value": "21 (4.4)"}, {"measurement": "TEAE preferred term: Hypertension", "setting": "[2]", "value": "18 (3.8)"}, {"measurement": "TEAE preferred term: Influenza", "setting": "[2]", "value": "17 (3.5)"}, {"measurement": "TEAE preferred term: Myalgia", "setting": "[2]", "value": "21 (4.4)"}, {"measurement": "TEAE preferred term: Nasopharyngitis", "setting": "[2]", "value": "18 (3.8)"}, {"measurement": "TEAE system organ class: Blood and lymphatic system disorders", "setting": "[2]", "value": "11 (2.3)"}, {"measurement": "TEAE system organ class: Cardiac disorders", "setting": "[2]", "value": "60 (12.5)"}, {"measurement": "TEAE system organ class: Eye disorders", "setting": "[2]", "value": "23 (4.8)"}, {"measurement": "TEAE system organ class: Gastrointestinal disorders", "setting": "[2]", "value": "72 (15.0)"}, {"measurement": "TEAE system organ class: General disorders and administration site conditions", "setting": "[2]", "value": "56 (11.7)"}, {"measurement": "TEAE system organ class: Injury, poisoning, and procedural complications", "setting": "[2]", "value": "61 (12.7)"}, {"measurement": "TEAE system organ class: Investigations", "setting": "[2]", "value": "35 (7.3)"}, {"measurement": "TEAE system organ class: Metabolism and nutrition disorders", "setting": "[2]", "value": "27 (5.6)"}]}
